Data from doi:10.1101/2022.01.10.475532 (bioRxiv, 2022).

Target: recombinant S trimer protein of the WT SARS-CoV-2 strain (SARS-CoV-2 WT (Wuhan-Hu-1), UniProt P0DTC2, stabilised)
Assay: ELISA

B1: MAb S3H3 (IgG) (antibody, V domains shown)
VH: QVQLQQPGAELVRPGASVKLSCKASGYSFTRFWMNWVKQRPGQGLEWIGMIHPSDSETRLNQKFKDKATLTVDKSSTTAYMQLSSPTSEDSAVYYCARKDYDYDAWFAYWGQGTLVTVSA
VL: DIVLTQSPASLAVSLGQRATISCRASKSVSASVYSYMHWYQQKPGQPPKLLIYLASSLESGVPARFSGSGSGTDFTLNIHPVEEEDAATYYCHHSRELPPAFGGGTKLEIK
binding result: binds
